# Molecular target: the molecule itself
# Assay: negative stain electron microscopy
protein,measurement,value
"Drosophila P5CS, purified from E. coli (enzyme, UniProt Q9VNW6 1-776, looked up) MLQNSFKLAQSLRNGFYRNAWRAFSSHGPRQPLVSPERRLEKAHPTFTERSQLKYARRLVVKLGSAVITREDNHGLALGRLASIVEQVAECHLEGREVMMVTSGAVAFGKQKLAQELLMSLSMRETLNPKDSKEFDGATLEPRAAAAVGQSGLMSLYDAMFAQYGVKIAQVLVTKPDFYNEETRNNLFCTLSELISLNIVPIINTNDAVSPPMFIRDDEPAGGARRGIPIKDNDSLSAMLAAEVQADLLILMSDVDGIYNKPPWEDGAKLMHTYTSDDSNSIEFGKKSKVGTGGMDSKVKAATWALDRGVSVVICNGMQEKAIKTIIGGRKVGTFFTEATESANAVPVEVMAENARTGSRQMQALTPAQRASAVNTLADLLVSREKFILDANAKDLAEAQKSGLAKPLLSRLSLNPAKLKNLSVGLKQIAEDSHKNVGRVLRRTRLADQLELKQVTVPIGVLLVIFESRPDSLPQVAALAMASANGLLLKGGKEAAHSNKALMELVKEALATVGAEHAVSLVSTREEISDLLSMENHIDLIIPRGSSDLVRSIQQQSLHIPVLGHAEGVCHVYIDRDADLEKALRIARDAKCDYPAACNAMETLLIHEDLMSGAIFGDVCNMLKREGVKIYAGPRLNQQLTFGPPAAKSLKHEYGALECCIEVVPSLDEAINHIHTYGSSHTDVIVTENDAAARQFLGSVDSACVFHNASSRFADGFRFGLGAEVGISTARIHARGPVGVEGLLTTKWILEGQDHAAADFAEGGGRTWLHETLPLD",binding result,binds

# From article doi:10.1101/2019.12.11.872267 (bioRxiv, 2019)
